Target: mutant forms of RUVBL1 and RUVBL2
Assay: co-IP

B1: RL-NOP58 (natural protein)
chain: MLVLFETSVGYAIFKVLNEKKLQEVDSLWKEFETPEKANKIVKLKHFEKFQDTAEALAAFTALMEGKINKQLKKVLKKIVKEAHEPLAVADAKLGGVIKEKLNLSCIHSPVVNELMRGIRSQMDGLIPGVEPREMAAMCLGLAHSLSRYRLKFSADKVDTMIVQAISLLDDLDKELNNYIMRCREWYGWHFPELGKIISDNLTYCKCLQKVGDRKNYASAKLSELLPEEVEAEVKAAAEISMGTEVSEEDICNILHLCTQVIEISEYRTQLYEYLQNRMMAIAPNVTVMVGELVGARLIAHAGSLLNLAKHAASTVQILGAEKALFRALKSRRDTPKYGLIYHASLVGQTSPKHKGKISRMLAAKTVLAIRYDAFGEDSSSAMGVENRAKLEARLRTLEDRGIRKISGTGKALAKTEKYEHKSEVKTYDPSGDSTLPTCSKKRKIEQVDKEDEITEKKAKKAKIKVKVEEEEEEKVAEEEETSVKKKKKRGKKKHIKEEPLSEEEPCTSTAIASPEKKKKKKKKRENED
  co-IP efficiency: < 0.1%

Reference: PMC7826282
